From patent publication US20230303685A1 (ELECTRA THERAPEUTICS, published 2023)

Assays:
human SIRPγ-His monomer [1] = molecular target: T1, human SIRPγ-His monomer (human); test: BLI (Octet); antibody on anti-mouse IgG capture tip, SIRP-His monomer at 100, 33.3, 11.1 nM, 1:1 fit, mean KD
T1 construct: 'SIRP-His monomer protein' of the Octet assay; also called SIRP-His; not shown: His tag
Summary of the method: (§1)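 Rat/mouse-Fc antibodies captured on anti-mouse IgG tips; human-Fc antibodies cleaved with gingipain K to monomeric F(ab′), biotinylated, loaded on streptavidin tips. SIRP-His association then wash-buffer dissociation; 1:1 model fitted per concentration, KD as kdis/kon averaged over concentrations.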

human SIRPβ1-His monomer [2] = molecular target: T2, human SIRPβ1-His monomer (human, UniProt O00241 30-371); test: as above
T2 construct: 'SIRP-His monomer protein' of the Octet assay; also called SIRP-His; not shown: His tag
T2 sequence (O00241 30-371): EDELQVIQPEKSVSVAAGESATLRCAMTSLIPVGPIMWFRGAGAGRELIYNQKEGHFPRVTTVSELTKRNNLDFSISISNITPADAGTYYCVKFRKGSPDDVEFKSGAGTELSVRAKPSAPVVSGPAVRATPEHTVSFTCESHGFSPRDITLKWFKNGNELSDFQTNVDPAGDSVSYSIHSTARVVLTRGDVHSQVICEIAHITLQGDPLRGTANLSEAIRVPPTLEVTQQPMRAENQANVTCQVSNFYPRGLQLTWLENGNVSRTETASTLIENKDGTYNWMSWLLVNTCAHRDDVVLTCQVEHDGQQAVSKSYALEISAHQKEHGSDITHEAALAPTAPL
Summary of the method: as §1

[3] = molecular target: T3, human SIRPα V1-His monomer (human, UniProt P78324 31-373, limits assumed); test: as above
T3 construct: 'SIRP-His monomer protein' of the Octet assay; also called SIRP-His; not shown: His tag
Summary of the method: as §1

[4] = molecular target: T4, human SIRPα V1 extracellular domain, monomeric (human, UniProt P78324 31-373); test: ELISA, extracellular domain coated at 2 µg/mL, purified antibody titrated, anti-rat or anti-mouse IgG, chemiluminescence
T4 construct: also called hSIRPα V1
Experimental: (§2) Select SIRP antibodies were purified by Protein G from hybridoma supernatants and analyzed in a titration via ELISA. Briefly, 2 μg/mL of extracellular domain of each of the SIRPs was coated onto high protein-binding plates and blocked. Purified antibodies were added in a titration to the coated plates. The antibodies were detected by an anti-rat IgG or an anti-mouse IgG antibody and a chemiluminescent substrate.

Cynomolgus Monkey SIRPβ1 = molecular target: T5, Cynomolgus Monkey SIRPβ1 (Macaca fascicularis); test: as above
T5 construct: extracellular domain; also called cyno SIRPβ1 extracellular domain, plate-coated
Experimental: as §2

[5] = molecular target: T6, cynomolgus monkey SIRPα extracellular domain, monomeric (cynomolgus monkey, UniProt A0A2K5VYQ9 31-372); test: as above
T6 construct: extracellular domain; also called Cyno SIRPα
Experimental: as §2

Human SIRPγ = molecular target: T7, Human SIRPγ; test: as above
T7 construct: also called human SIRPγ extracellular domain, plate-coated
T7 chain: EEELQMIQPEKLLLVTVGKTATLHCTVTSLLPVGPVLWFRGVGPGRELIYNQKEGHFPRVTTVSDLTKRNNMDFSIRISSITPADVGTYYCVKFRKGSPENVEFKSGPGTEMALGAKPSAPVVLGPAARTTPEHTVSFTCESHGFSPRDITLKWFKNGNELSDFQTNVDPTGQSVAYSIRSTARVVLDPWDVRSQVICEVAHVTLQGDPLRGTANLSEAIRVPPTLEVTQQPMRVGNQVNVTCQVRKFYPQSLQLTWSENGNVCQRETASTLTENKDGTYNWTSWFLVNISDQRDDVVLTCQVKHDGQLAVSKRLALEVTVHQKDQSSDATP
Experimental: as §2

[6] = molecular target: T8, Human SIRPγ conjugated to an Fc region (human); test: BLI blocking; 200 nM antibody pre-incubated with 20 nM SIRPγ-Fc, binding to immobilised CD47-His (competitor), % of response of SIRPγ-Fc alone
T8 construct: also called SIRPγ-Fc; SIRP-Fc; not shown: Fc region
T8 sequence (Q9P1W8 whole entry): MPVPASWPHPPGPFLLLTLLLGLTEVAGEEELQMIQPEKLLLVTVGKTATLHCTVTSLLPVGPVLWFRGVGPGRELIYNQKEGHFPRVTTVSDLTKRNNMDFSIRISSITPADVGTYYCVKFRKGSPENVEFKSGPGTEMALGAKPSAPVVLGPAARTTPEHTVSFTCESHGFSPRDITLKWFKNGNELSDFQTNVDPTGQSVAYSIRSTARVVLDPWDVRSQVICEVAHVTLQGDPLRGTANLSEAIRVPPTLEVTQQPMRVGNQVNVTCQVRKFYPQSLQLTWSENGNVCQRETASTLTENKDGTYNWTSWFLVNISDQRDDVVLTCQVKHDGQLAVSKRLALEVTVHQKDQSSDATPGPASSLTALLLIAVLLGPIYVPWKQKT

[7] = molecular target: T4, human SIRPα V1 extracellular domain, …; test: SPR (Biacore); antibody captured by anti-IgG on chip, monomeric SIRPα extracellular domain as analyte, 1:1 model
[8] = molecular target: T6, cynomolgus monkey SIRPα extracellular …; test: as above
human SIRPγ-His monomer [9] = molecular target: T1, human SIRPγ-His monomer; test: BLI (Octet); biotinylated monomeric F(ab') on streptavidin tip, SIRP-His monomer at 100, 33.3, 11.1 nM, 1:1 fit, mean KD
Experimental: (§3) Select SIRP antibodies were tested for their affinities to human SIRPα, SIRPβ1, and SIRPγ using a biolayer interferometry (BLI) Octet system (Pall ForteBio). Each SIRP antibody with rat or mouse Fc was immobilized on a biosensor tip by an anti-mouse IgG capture (AMC). Antibodies with human Fc were digested with gingipain K enzyme to yield monomeric F(ab′), biotinylated, then coated onto streptavidin biosensors. […] The biosensors were then exposed to wash buffer to measure off-rate kinetics. The resulting kinetic data were analyzed and fitted using a 1:1 binding model with kₒₙ and kdis fitted separately at each SIRP-His protein concentration. KD affinities were calculated as kdis to kₒₙ ratio at each concentration of SIRP-His and averaged.

human SIRPβ1-His monomer [10] = molecular target: T2, human SIRPβ1-His monomer; test: as above
Experimental: as §3

[11] = molecular target: T3, human SIRPα V1-His monomer; test: as above
Experimental: as §3

B1: Antibody 1 (antibody, V domains shown)
VH: QVQLQESGPGLVKPSGTLSLTCAVSGGSISSSNWWSWVRQPPGKGLEWIGEIYHSGSTNYNPSLKSRVTISVDKSKNQFSLKLSSVTAADTAVYYCARRGIWFGVGPWGQGTLVTVSS
VL: DIVMTQSPLSLPVTPGEPASISCRSSQSLLHGNGFNYLDWYLQKPGQSPQLLIYLGSNRASGVPDRFTGSGSGTDFTLKISRVEAEDVGVYYCMQGLQTPRTFGQGTKVEIK
notes: Human variable region, rat IgG2b Fc; from hybridoma
Kd (human SIRPγ-His monomer [1]): 973 nM
Kd (human SIRPβ1-His monomer [2]): 3520 nM
Kd [3]: 37.1 nM
EC50 (read off the curve) [4]: ~0.1 µg/mL
EC50 (read off the curve) (Cynomolgus Monkey SIRPβ1): ~0.2 µg/mL
EC50 (read off the curve) [5]: ~0.1 µg/mL
EC50 (read off the curve) (Human SIRPγ): ~0.2 µg/mL
SIRPγ-CD47 Response (%) [6]: 110%
Kd [7]: 579 nM
Kd [8]: 581 nM

B2: Antibody 28, monomeric F(ab') (gingipain K digest, biotinylated) (Fab, V domains shown)
VH: QVQLQESGPGLVKPSGTLSLTCAVSGGSISSSNWWSWVRQPPGKGLEWIGEIYHSGSTNYNPSLKSRVTISVDKSKNQFSLKLSSVTAADTAVYYCARRGIWFGVGPWGQGTLVTVSS
VL: DIVMTQSPLSLPVTPGEPASISCRSSQSLLHGNGFNYLDWYLQKPGQSPQLLIYLGSNRASGVPDRFTGSGSGTDFTLKISRVEAEDVGVYYCMQGLQTPRTFGQGTKVEIK
modifications: biotinylated (site not stated)
Kd (human SIRPγ-His monomer [9]): 1340 nM
Kd (human SIRPβ1-His monomer [10]): 555 nM
Kd [11]: 14.9 nM
